This is an account of results in the DeepSol protein solubility set.

The nature of the data set: soluble on expression in E. coli; label from the status in PepcDB or PDB records.
Take “MGSDKIHHHHHHMLDLNHGSGCQYQKPDRDPGITVAVNAAIDAALVVRNRSQVARQYVSTSGIGRECLRQIQYDYLAVPKDEGRDFEPKTLRIFEAGHRGEDVVAAWLRAAGFDLRTERRDGRQFGFSALNGRFKGHIDGCLVGGPVAMAYPALWENKALGVSSWKDVVKRGVVLSKPVYAAQLALYQAYMDLPAPTLFTALNRDTWEIHCELVPFDAALAQTMSDRAVQVVRASDAQELLPRASAERTSVICRGGKTAGGWHGACSWQDRCWGRCR”: the “soluble on expression in E. coli” value was “not soluble”.

“MAHHHHHHMGTLEAQTQGPGSMSEPLLLQDRDERGVVTLTLNRPQAFNALSEAMLAALGEAFGTLAEDESVRAVVLAASGKAFCAGHDLKEMRAEPSREYYEKLFARCTDVMLAIQRLPAPVIARVHGIATAAGCQLVAMCDLAVATRDARFAVSGINVGLFCSTPGVALSRNVGRKAAFEMLVTGEFVSADDAKGLGLVNRVVAPKALDDEIEAMVSKIVAKPRAAVAMGKALFYRQIETDIESAYADAGTTMACNMMDPSALEGVSAFLEKRRPEWHTPQPSTA”: the “soluble on expression in E. coli” value is on record as “soluble”. With “MHWRLTVLFFASAQLSEGCLPMVPPEEPVTPVPVCPAGWFQFQRATGLWCYIFATPGAGWTTPQAACQANYGANLNGFESAAERTQFIQDMLASNLAPYTFVHIGAMRQCAPCTVNDPFVWLNGVSNDNTFANDYDSLYDLTGDCLSMDLGNNGQYNDITCDAETAYSCGKPAA” the entry was “not soluble”.

As for “MASGAKKLRNVNEVLSAKKPVSILLMGTDTGALGRTFAGRTDSMMVVTINPKTNKTTITSIPRDTAVNIPGYTSYGVSKINAAYAYGKSKTAITTVQKMLNIPIDFYAIINMGGMEKIIDEVGGVTLKPTLSFSYGGYTFKKGVKTHMNGKKALAYSRMRDDDPLGDYGRQTRQRKVIMALLNKSNSISSLLNEDFISSLSKQTQTDLTFNDLTALATNYRKATQYIKTTHLQGTSETIESQSMEVASKSELQRVTNYIRKALGLSHKTTGTIAQLEHHHHHH”, the “soluble on expression in E. coli” value is on record as “soluble”. With “MTSLSQFEPLFLEFMQQEMQVDAAHDIEHVKRVVKTAKQLCDEENADIAIVLPAAYLHDCFTYPKDHPNRKQSSAIAAKKAIAYLESIQYPQHYHDAIAHAIEAHSFSANIRPNTLEAQIVQDADRLDALGAIGVTRCIQVSTHFNAQLYNDNDMFAKERELNDKQFTVDHFQTKLFKIADTMNTESAKLEANKRKAFMQTYLKQLHDEVTALEHHHHHH” the entry was “soluble”; with “SPVRTECPPPAGASTTSAASLIPPPPINTQQPGVATSLLYSGSKFRGHQKSKGNSYDVEVVLQHVDTGNSYLCGYLKIKGLTEEYPTLTTFFEGEIISKKHPFLTRKWDADEDVDRKHWGKFLAFYQYAKSFNSDDFDYEELKNGDYVFMRWKEQFLVPDHTIKDISGASFAGFYYICFQKSAASIEGYYYHRSSEWYQSLNLTHVPEHSAPIYEFR”, “soluble”. In the case of “MLAAGMSRRMGFNKLLAPLCGKRVLWHVLELVARFEGVLEGAVVVTSGEVADVLRRERPPGRRGLFRVVVNREQWRGLSHSIRLGVEASPGARAYLFFNGDRPFVSKHTVARVLALYMARRPLIAAPMAGGAIAPPVVVDSRLRGELLRLSGDTGVRSLFGKYRDSLAVVEVDDPGLHLDVDTPEDLERASKMCSQLGGGPREKPLEHHHHHH” it was “not soluble”. With “APIKVGINGFGRIGRMVFQAICDQGLIGTEIDVVAVVDMSTNAEYFAYQMKHDTVHGRPKYTVEAVKSSPSVETADVLVVNGHRIKCVKAQRNPADLPWGKLGVDYVIESTGLFTDKLKAEGHIKGGAKKVVISAPASGGAKTIVMGVNQHEYSPASHHVVSNASCTTNCLAPIVHVLTKENFGIETGLMTTIHSYTATQKTVDGVSLKDWRGGRAAAVNIIPSTTGAAKAVGMVIPSTKGKLTGMSFRVPTPDVSVVDLTFRATRDTSIQEIDKAIKKAAQTYMKGILGFTDEELVSADFINDNRSSVYDSKATLQNNLPGEKRFFKVVSWYDNEWAYSHRVVDLVRYMAAKDAASSKM” the entry was “soluble”. On to “MGSDKIHHHHHHMSIFVKTFGGTRVIKDNDIVSARDWPSQKAFALFRYLIFRRNEEVSVEEIYNLFWEDMDDTFAKSNLNTTLHIIRKTTGITSEELFVKGDLCCFFPGGEITIDADIFEECHRNLMKATSDAEREKLLKRMFEIYTGPFLVEDIFAEWVQEIREIYESWYSDVLKELFKLYLSKKDYDAALEMVNAYFQREPYDEDMYYRAIEVLLKKGDITRAKRVYDKLSSHLMEIGIKPRLKFDDFLSKRDSEFMLNGNKAVVVDEKLFERFLFLESRRREKSFVLVEVKLTDKSISTEDVSQRVASQLRKGDVITFSGETIRILFHCPEQRRPTMEKRVVDALEKVGVKKGQYEIS”, for which the “soluble on expression in E. coli” value is “not soluble”. With “MGSDKIHHHHHHMDVTSTLSLGDPLEPARKATADMLRSRDHSFSLPQPFYCDQRLFEIDMQEIFHKEWLIAGMTCEIPAKGNFLTLQIGKNPVLVIRGAEGQVHAFHNVCRHRGSRLCVSEKGKVAKLVCPYHQWTYELDGRLLFAGTEMGADFDMKEYGLKPIQVKTAGGYIFISLAENPPAIDDFLATLEHYMEPYDMENAKVAVQTTIREAANWKLVIENNRECYHCNGSHPELLKTLLEWDDVTDPRASQAFKDQVAACTSAWDAEKIPYAHASFGLRNRIVRMPLLDGTVSMTMDGKQGSKKLMGRIKNPDLGSMRILHLPHSWNHCMGDHLIVFTVWPISAQETLVTTKWLVHKDAVEGVDYDVARLREVWDATNDQDRRLAEENQRGINSDAYQPGPYSKTYEFGVINFLDWYSERMLNNLGEESAHVRKVAGS” the entry was “not soluble”.

“IEGIPVYLLDKESGPFSFFHWIFIYPQAHPQNELSEILTHEGTHARQRHSIDVIISELMCIACWFNPFMWLMKREVRNNLEYMADNRVLEAGHDSKSYQYHLLGLAHQKSAITLSNSFNVLPLKNRITMM”: the “soluble on expression in E. coli” value is reported as “not soluble”. In the case of “MGHHHHHHSHMLTKFETKSARVKGLSFHPKRPWILTSLHNGVIQLWDYRMCTLIDKFDEHDGPVRGIDFHKQQPLFVSGGDDYKIKVWNYKLRRCLFTLLGHLDYIRTTFFHHEYPWILSASDDQTIRVWNWQSRTCVCVLTGHNHYVMCAQFHPTEDLVVSASLDQTVRVWDISGLRKKNLSPGAVESDVRGITGVDLFGTTDAVVKHVLEGHDRGVNWAAFHPTMPLIVSGADDRQVKIWRMNESKAWEVDTCRGHYNNVSCAVFHPRQELILSNSEDKSIRVWDMSKRTGVQTFRRDHDRFWVLAAHPNLNLFAAGHDGGMIVFKLERERPA” it was “not soluble”; in that of “MVNSTTLAHLNTNIDHLTTVLSSYAGRDKAIRSLAFYLQLKSTTSPDNAKEILGLAKQLSAARLVSRQFNHPGMLKSCRQIMQAFQTGRIGDPLEFLTGAAVTGIYTVYGFVELLAWLSDAKILAFNSARLYKWCLYLWLSELINGIVRQMRVIYRKGIEKSQEDILTLVGLSSDFISGVNSLPHKILWAGKLSMRQSASFSLLASIIGFYKLW”, “not soluble”. For the sequence “MGSDKIHHHHHHMSVLKGSQNVTICNANGLKLAARLELPDIPPRGMAMIAPAFGCTKEILIASRTARRLLQYGIGSLRLDFTGIGQSEGDFSMTNLDTQVEDFVSAADWLRQHVAAPNILIGHSFGGLVALNACHSIPESRACVTIATPESPAHVLEIIGEDKTREIMQGGATSIEVNRQPYVLRRQFADHARQFRLHDTMQRLRVPVLIMHSPRDEMVPMRHAHAIFETARHPKSLLAIEDADHMVSERPAAEFVASTIGLWGMRYLTDG”, the “soluble on expression in E. coli” value was “not soluble”. Consider “SGRPLEGQPLRALDLYPEPAFLRSGKDPKSSPASSPSFAVLGPEVRSTGGQAGSRRRPSAPCSQDRAAAEGAPALLGGSPSSGSPGHPPGSAFGVEAGCRALNVSEHARGGFALGLPFGLSGGAYLFLLLDGAGDPKPTPEAPISSADGRAWFPSESSWQLPQLPAGSTSGSEPRARPGLGPRQLPTGPRDGAAGQGPGRGLTARLGREREIDCGPRQAGHGGTATDTGRAGSGARHRPPRDRGTPGLRTH”, for which the “soluble on expression in E. coli” value is “soluble”.

Turning to “MTEKKIDFKKEEKKFYAPKRKPERIFVPEMNFLMVDGKGDPDGEEYQKAVQSLYAIAYTIKMSKMGETRLDGYSDFVVPPLEGFWWSEGKFDLKDRDAWLWTSILRQPDFVTEEVLEWAKEVARKKKPDVDTSRVKLVRFEEGECVQMMHVGPFSEEVHTVAEMHQFMETEGLRNDTGAIRKHHEIYLSDPRKANPEKMKTILRLPVS”, the “soluble on expression in E. coli” value is “soluble”.
